Laboratory results as given in patent US20030165919A1, “Method for the analysis of exogenic and endogenic cell activiation based on measuring the aggregation of receptors” (priority 2000, published 2003).

Assays:
Type in all cases: cell-based
[1] = target: T1, receptor cluster comprising CD14 (Homo sapiens, UniProt P08571); test: FRET with a series of antibody pairs: receptor cluster comprising CD14 on monocytes; details: stimulation of the cells as control
T1 construct: endogenous in cells; host or cells: human monocytes in whole blood
T1 sequence (P08571 20-345 limits assumed): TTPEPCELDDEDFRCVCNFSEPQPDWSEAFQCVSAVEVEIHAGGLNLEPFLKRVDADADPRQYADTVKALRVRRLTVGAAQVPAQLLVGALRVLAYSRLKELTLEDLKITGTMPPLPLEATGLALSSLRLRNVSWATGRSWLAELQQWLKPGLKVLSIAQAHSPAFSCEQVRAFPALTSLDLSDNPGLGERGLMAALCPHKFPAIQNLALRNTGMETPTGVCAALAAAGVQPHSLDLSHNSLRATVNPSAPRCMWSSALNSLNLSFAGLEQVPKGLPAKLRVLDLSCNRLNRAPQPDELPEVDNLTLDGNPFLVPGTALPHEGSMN
Method: (§1) Aliquots […] of whole blood were incubated with the following stimulatory compounds at 37° C. for 15 minutes: LPS of Salmonella minnesota (0.1-10 nM, Mw 10 kDa), ceramide (primarily stearic acid and nervonic acid) and sulfogalactosyl ceramide (SG-cer, […]), both of which tested LPS free in the LAL assay (Cer, 1 nM-5.5 mM), lysophosphatidyl choline (lyso-PC, 10 mM), phorbol-12-myristate-13-acetate (PMA, 1 mM), N-formyl-L-methionyl-L-leucyl-L-phenyl alamine (fMLP, 1 mM), PE, PC, PI and PS liposomes (10 mm) which had been prepared as described above. All reagents were obtained from Sigma. In addition, the cells were stimulated with HPS70 (7 nM), dHSP70 (7 nM) and SG-cer+dHSP70 (40 nM+7 nM). After incubation, the cells were washed with cold PBS containing 0.1% of NaN3. The synthetic LPS antagonist lipid IVa (“compound-406”, 1-400 ng/ml) and lipid A derived from E. coli (1-100 ng/ml) were made available by courtesy of Dr. S. Kusumoto. The cells were pre-incubated with the LPS antagonist at 37° C. for 15 minutes and then stimulated with LPS at the same temperature (without washing).
(§2) Whole blood cells which had been stimulated or washed ex vivo […] were incubated on ice for 15 minutes with saturation concentrations of monoclonal fluorochrom-conjugated or biotinylated antibodies. The monoclonal antibodies CD11a (clone 25.3.1), CD16a (clone 3G8). […]

CD11b and CD14 = target: T2, CD11b and CD14 (Homo sapiens, UniProt P08571); test: FRET flow cytometry: co-assembly of CD11b and CD14 on monocytes; details: human monocytes in whole blood, stimulation with the substance alone, 37° C. 15 minutes
T2 construct: endogenous in cells; host or cells: human monocytes in heparinised whole blood (healthy donors and patients)
T2 sequence (P08571 20-345 limits assumed): T1 sequence (P08571 20-345 limits assumed)
Method: as §1
(§3) Whole blood cells which had been stimulated or washed ex vivo […] were incubated on ice for 15 minutes with saturation concentrations of monoclonal fluorochrom-conjugated or biotinylated antibodies. The monoclonal antibodies CD11a (clone 25.3.1), CD16a (clone 3G8). CD18 (clone 7E4), CD14 (clone RMO52), CD33 (clone My9-RD1). CD81 (clone Js64) were obtained as R-phyco-erythrine (R-PE) conjugates and CD25 (clone B1.49.9) in biotinylated form from Coulter/Immunotech (Krefeld, Germany). CD11b (clone d12), CD11c (clone S-HCL-3), CD36 (clone CB38), CD47 (clone B6H12), CD81 (clone JS-81) and (Cd55 (clone IA10) in biotinylated form and Streptavidin-R-PE were purchased from Becton/Dickinson/Pharningen (Heidelberg, Germany) CD18 (clone IB4) in biontinylated form and CD40 (clone EA-5) as R-PE conjugate were obtained from Alexis (Grünberg, Germany) and CD14 (clones ×8 and Uchml) and CD3 (clone Cris-7) in biotinylated form and Streptavidin-Cy5 (Sa-Cy5) from Dianova (Hamburg, Germany), CD32 (clone C1KM5) and CD64 (clone 10.1) were obtained as R-PE conjugates from Caltag (Burlingame, U.S.A.) and CD91 (clone 8G1) in biotinylated form from Proen (Heidelberg, Germany). A monoclonal anti-TLRA antibody (clone HTA125) was kindly provided by Dr. Kensuke. Since no energy transfer between the antibodies directed against the CD14/CD11a and CD14/CD11c pairs was detectable either on resting or on stimulated cells, these antibody combinations were not characterised further.
Lysis of erythrocytes and washing were carried out as described (Rothe et al., Thromb. Vasc. Biol. 16 (1996), 1437-1447). After the last washing step, the samples were divided and part of each sample incubated with a saturating amount of SA-Cy5 on ice for 15 minutes and washed before measuring.
For energy transfer experiments, […] aliquots of whole blood were treated with cholesterol/methyl cyclodextrine (C/C) (100 mg/ml/4.6 mg/ml) or 2-hydroxypropyl-β-cyclodextrine (0.15 mg/ml) at 37° C. for 30 minutes and then stimulated further with LPS (4 nM) or ceramide (40 nM) as described above. The energy transfer between CD14 and CD11b was measured.
A “FACSCalibur” flow cytometer (Becton Dickinson) equipped with an air-cooled 15 mW argon laser (excitation wavelength 488 nm), a diode laser (excitation wavelength […]) and standard filters [channel 1 (FITC): 530/30 nm band pass filter; channel 2 (R-PE being used as donor dye); 585/47 nm band pass filter; channel 3 (PerCP): pass having a length of >670 nm; and channel 4 (Cy5being used as recipient dye): 661/16 nm bad pass filter] was used. The Cellquest software (Becton Dickinson) was used for the measurements. […] Measurement was conducted without compensation. 50,000 leukocytes were required in the “list” modus, forward scattering (FSC) being used as a trigger signal. […]

CD81/CD14 (×8) = target: T3, CD81/CD14 (×8) (Homo sapiens, UniProt P08571); test: FRET co-assembly of CD81 with CD14 on monocytes; details: LPS 4 nM, ceramide 40 nM, LTA 1 μg/ml, HSP70 7 nM, mean ± SD of 10 experiments
T3 construct: endogenous in cells; host or cells: human monocytes in whole blood (donors; also sepsis and CAD patients)
T3 sequence (P08571 20-345 limits assumed): T1 sequence (P08571 20-345 limits assumed)
Method: as §1
as §3, with “further. […]” for “further.”

CD55/CD14 (Uchm1) = target: T4, CD55/CD14 (Uchm1) (Homo sapiens, UniProt P08571); test: FRET co-assembly of CD55 with CD14 on monocytes; details: LPS 4 nM, ceramide 40 nM, LTA 1 μg/ml, HSP70 7 nM; mean ± SD of 10 experiments; >5% = positive transfer
T4 construct: endogenous in cells; host or cells: human monocytes in whole blood
T4 sequence (P08571 20-345 limits assumed): T1 sequence (P08571 20-345 limits assumed)
Method: as §1, §2

TLR-4/CD14 (×8) = target: T5, TLR-4/CD14 (×8) (Homo sapiens, UniProt P08571); test: FRET co-assembly of TLR-4 with CD14 on monocytes; details: LPS 4 nM, ceramide 40 nM, LTA 1 μg/ml, HSP70 7 nM; mean ± SD of 10 experiments; >5% = positive transfer
T5 construct: endogenous in cells; host or cells: human monocytes in whole blood
T5 sequence (P08571 20-345 limits assumed): T1 sequence (P08571 20-345 limits assumed)
Method: as §1, §2

CD36/CD14 (×8) = target: T6, CD36/CD14 (×8) (Homo sapiens, UniProt P08571); test: FRET co-assembly of CD36 with CD14 on monocytes; details: LPS 4 nM, ceramide 40 nM, LTA 1 μg/ml, HSP70 7 nM; mean ± SD of 10 experiments; >5% = positive transfer
T6 construct: endogenous in cells; host or cells: human monocytes in whole blood
T6 sequence (P08571 20-345 limits assumed): T1 sequence (P08571 20-345 limits assumed)
Method: as §1, §2

CD32/CD14 (Uchm1) = target: T7, CD32/CD14 (Uchm1) (Homo sapiens, UniProt P08571); test: FRET co-assembly of CD32 with CD14 on monocytes; details: LPS 4 nM, ceramide 40 nM, LTA 1 μg/ml, HSP70 7 nM; mean ± SD of 10 experiments; >5% = positive transfer
T7 construct: endogenous in cells; host or cells: human monocytes in whole blood
T7 sequence (P08571 20-345 limits assumed): T1 sequence (P08571 20-345 limits assumed)
Method: as §1, §2

CD64/CD14 (Uchm1) = target: T8, CD64/CD14 (Uchm1) (Homo sapiens, UniProt P08571); test: FRET co-assembly of CD64 with CD14 on monocytes; details: LPS 4 nM, ceramide 40 nM, LTA 1 μg/ml, HSP70 7 nM; mean ± SD of 10 experiments; >5% = positive transfer
T8 construct: endogenous in cells; host or cells: human monocytes in whole blood
T8 sequence (P08571 20-345 limits assumed): T1 sequence (P08571 20-345 limits assumed)
Method: as §1, §2

CD18(7E4)/CD14 (×8) = target: T9, CD18(7E4)/CD14 (×8) (Homo sapiens, UniProt P08571); test: FRET co-assembly of CD18 with CD14 on monocytes; details: LPS 4 nM, ceramide 40 nM, LTA 1 μg/ml, HSP70 7 nM; mean ± SD of 10 experiments; >5% = positive transfer
T9 construct: endogenous in cells; host or cells: human monocytes in whole blood
T9 sequence (P08571 20-345 limits assumed): T1 sequence (P08571 20-345 limits assumed)
Method: as §1, §2

| co-assembly of CD11b and CD14 (energy transfer between monoclonal antibodies) (CD11b and CD14) | energy transfer CD81 (JS-81)/CD14 (×8) (CD81/CD14 (×8); CD81 clone JS-81) | energy transfer CD81 (Js64)/CD14 (×8) (CD81/CD14 (×8); CD81 clone Js64) | energy transfer CD55/CD14 (Uchm1) (CD55/CD14 (Uchm1)) | energy transfer TLR-4/CD14 (×8) (TLR-4/CD14 (×8)) | energy transfer CD36/CD14 (×8) (CD36/CD14 (×8)) | energy transfer CD32/CD14 (Uchm1) (CD32/CD14 (Uchm1)) | energy transfer CD64/CD14 (Uchm1) (CD64/CD14 (Uchm1)) | energy transfer CD18(7E4)/CD14 (×8) (CD18(7E4)/CD14 (×8)) | Compound | energy transfer between any of the antibody pairs [1] |
| --- | --- | --- | --- | --- | --- | --- | --- | --- | --- | --- |
| induces clustering of CD11b and CD14 | 1.0 ± 0.1% | 3.8 ± 2.5% | 6.0 ± 0.5% | 5.4 ± 0.6% | 8.2 ± 1.8 % | 5.3 ± 2.1% | 10.1 ± 1.5% | 6.0 ± 2.1 % | HSP70: Heat shock protein 70 obtained from Stressgen |  |
| does not induce any receptor complex |  |  |  |  |  |  |  |  | dHSP70: HSP70 delipidated in ethanol/diethyl ether |  |

| Compound | co-assembly of CD11b and CD14 (energy transfer between monoclonal antibodies) (CD11b and CD14) | energy transfer CD81 (JS-81)/CD14 (×8) (CD81/CD14 (×8); CD81 clone JS-81) | energy transfer CD81 (Js64)/CD14 (×8) (CD81/CD14 (×8); CD81 clone Js64) | energy transfer CD55/CD14 (Uchm1) (CD55/CD14 (Uchm1)) | energy transfer TLR-4/CD14 (×8) (TLR-4/CD14 (×8)) | energy transfer CD36/CD14 (×8) (CD36/CD14 (×8)) | energy transfer CD32/CD14 (Uchm1) (CD32/CD14 (Uchm1)) | energy transfer CD64/CD14 (Uchm1) (CD64/CD14 (Uchm1)) | energy transfer CD18(7E4)/CD14 (×8) (CD18(7E4)/CD14 (×8)) | energy transfer between any of the antibody pairs [1] |
| --- | --- | --- | --- | --- | --- | --- | --- | --- | --- | --- |
| CSCC[C@H](NC=O)C(=O)N[C@@H](CC(C)C)C(=O)N[C@@H](Cc1ccccc1)C(=O)O [fMLP, N-formyl-L-methionyl-L-leucyl-L-phenyl alamine] | neither fMLP or PMA showed any effect |  |  |  |  |  |  |  |  | did not result in any significant energy transfer |
